Assays:
[1] = test system: HLA class I on Caki-2 cells; assay: Cell surface expression analysis of HLA class I by flow cytometry; type: binding, human; conditions: Caki-2, clear cell renal cell carcinoma; FITC-labeled mAb
Protocol: (§1) Reactivity of 2D7 mAb in tumor cell lines and myeloma cells derived from multiple myeloma patients were assessed by flow cytometry.
(§2) The tumor cell lines used were prepared as follows. The myeloma cell line RPMI 8226, B lymphoblastic cell lines (IM-9, Raji, H S-Sultan, and Daudi), the T lymphoblastic cell line CEM, the chronic myeloid leukemia cell line K562, the lung adenocarcinoma cell line A549, the colon adenocarcinoma cell line COLO 201, and the gastric adenocarcinoma cell line MKN-1 were obtained from the Health Science Resources Bank (Osaka, Japan). The myeloma cell line U266-B1, the B lymphoblastic cell line ARH-77, the T-lymphoblastic cell line Jurkat the breast cancer cell line MCF-7, the hepatocellular carcinoma HepG2, the clear cell renal cell carcinoma Caki-2, and the malignant melanoma MeWo were obtained from the American Type Culture Collection (Manassas, Va.). The EBV-transformed B-cell line YN was a gift from Dr. Yasuhiko Nishioka (The University of Tokushima). These cell lines were cultured in an RPM-1640 medium (Sigma-Aldrich, St. Louis, Mo.) supplemented with 10% fetal calf serum (Gibco BRL, Grand Island, N.Y.) and penicillin (100 U/mL) under a humidified atmosphere of 5% CO2 at 37° C.
(§3) Cell surface expression analysis of HLA class I by flow cytometry was performed as follows using FITC-labeled 2D7 mAb or FITC-labeled anti-HLA-ABC common region mAb (Chemicon, San Diego, Calif.). The cells (5×10^5 cells) were washed twice with PBS, and then incubated on ice for 40 minutes with FITC-labeled 2D7 mAb or FITC-labeled anti-HLA-ABC common region mAb. MM patient-derived BMMCs were incubated on ice for 15 minutes with 2% γ globulin diluted in PBS, and stained with FITC-labeled 2D7 mAb and PE-labeled anti-CD38 mAb (BD Bioscience, San Jose, Calif.) for myeloma cell gating. Next, the cells were washed twice with PBS, and analyzed using an EPICS XL flow cytometer (Beckman Coulter, Japan). In several experiments, the cells were stimulated for 48 hours with IFNα or IFNγ prior to HLA class I expression analysis. HLA class I expression levels were evaluated as GeoMFI using the CellQuest software (BID Biosciences).

[2] = test system: HLA class I on HepG2 cells; assay: as above; type: binding, human; conditions: HepG2, hepatocellular carcinoma; FITC-labeled mAb
Protocol: as §1, §2, §3

HLA-A on myeloma cells = assay: HLA-A expression in BMMCs of MM patients (flow cytometry, FITC-labeled 2D7 mAb); type: binding, human; conditions: BM samples of 22 MM patients, mean±SD
Protocol: (§4) After cell gating (R1: CD38-positive MM cells; R2: myeloid cells; and R3: lymphocytes), each cell population was evaluated for HLA-A expression. (B) BMMCs derived from 22 MM patients were analyzed for HLA-A expression.
(§5) Patients' MM cells were prepared as follows. First clinical disease stage classification and diagnosis of MM patients were performed according to the Durie and Salmon classification (Durie, B. CT, and S. E. Salmon. 1975. “A clinical staging system for multiple myeloma. Correlation of measured myeloma cell mass with presenting clinical features, response to treatment, and survival,” Cancer, 36:842-854). Bone marrow samples were collected from patients after obtaining informed consent upon approval by the ethics committee of The University of Tokushima. The bone marrow mononuclear cells (BMMCs) were separated by Ficoll-Hypaque (density of 1.077) centrifugation. Patient-derived MM cells were further purified from BMMCs using CD138 microbeads (Miltenyi Biotec, Auburn, Calif.).
as §3, with “In several experiments, the cells were stimulated for 48 hours with IFNα or IFNγ prior to HLA class I expression analysis.” left out
(§6) Next, HLA-A expression in BMMCs of MM patients was examined. […] After gating the cells according to their side-scattered light profile and CD38 expression, each of the cell populations comprising myeloma cells, myeloid cells, and lymphocytes was analyzed for HLA-A expression. […]

HLA-A on myeloid cells = assay: as above; type: binding, human; conditions: BM samples of 22 MM patients, mean±SD
Protocol: as §4, §5
as §3, with “In several experiments, the cells were stimulated for 48 hours with IFNα or IFNγ prior to HLA class I expression analysis.” left out
as §6

HLA-A on lymphocytes = assay: as above; type: binding, human; conditions: BM samples of 22 MM patients, mean±SD
Protocol: as §4, §5
as §3, with “In several experiments, the cells were stimulated for 48 hours with IFNα or IFNγ prior to HLA class I expression analysis.” left out
as §6

HLA-A on CD34+ cells = assay: Two-color flow cytometry of a peripheral blood stem cell collection; type: binding, human; conditions: CD34+ cells in a peripheral blood stem cell collection, n=3
patient-derived MM cells = assay: Cytotoxicity assay (Trypan Blue dye exclusion), patient-derived primary MM cells; type: cell-based, human; conditions: newly isolated MM cells, in the presence of a secondary antibody
Protocol: […] Cell viabilities were determined by WST-8 assays or Trypan Blue exclusion assays. […] (B) The morphological observations of myeloma cells after 2D7-DB treatment are shown. Purified MM cells derived from patient No. 18 were cultured for 24 hours in the presence (1 μg/mL) or absence of 2D7-DB. Next, cells were fixed on glass slides and stained with light Giemsa (original magnification,×1000). (C) A graph indicating the cytotoxic activity of 2D7-DB on the patients' MM cells is shown. CD138-positive MM cells were purified from six patients, and the cells were cultured for 24 hours with 2D7-DB (0.1 or 1μg/mL). Cell viabilities were determined by Trypan Blue exclusion assays.
Patients' MM cells were prepared as follows. First clinical disease stage classification and diagnosis of MM patients were performed according to the Durie and Salmon classification (Durie, B. CT, and S. E. Salmon. 1975. “A clinical staging system for multiple myeloma. Correlation of measured myeloma cell mass with presenting clinical features, response to treatment, and survival,” Cancer, 36:842-854). […]
Cytotoxicity assays were performed as follows. […] Cell viabilities were measured by WST-8 assays (Kishida Chemical, Osaka, Japan) for the cell lines, and by Trypan Blue dye exclusion assays for patient-derived primary MM cells. […]

B1: 2D7: monoclonal antibody obtained by immunizing human myeloma cells; recognizes HLA class I (HLA-A) (antibody, V domains shown)
VH: QVQLQQSGPELVKPGASVKMSCKASGYTFTDYFIHWVKQRPGQGLEWIGWIFPGDDTTDYNEKFRGKTTLTADKSSSTAYILLSSLTSEDSAMYFCVRSDDFDYWGQGTTLTVSS
VL: QIVLTQSPAIMSASPGEKVTITCSASSSVSYMHWFQQKPGTFPKLWIYSTSNLASGVPTRFSGSGSGTSYSLTISRMEAEDAATYYCQQRTSYPPTFGSGTKLEIK
Expression (geometric mean fluorescence intensity) [1]: 13
Expression (geometric mean fluorescence intensity) [2]: 33
HLA expression level, geometric mean fluorescence intensity (GeoMFI) (HLA-A on myeloma cells): 1309±1130
HLA expression level, geometric mean fluorescence intensity (GeoMFI) (HLA-A on myeloid cells): 201±209
HLA expression level, geometric mean fluorescence intensity (GeoMFI) (HLA-A on lymphocytes): 91±44
HLA-A expression, GeoMFI (HLA-A on CD34+ cells): 109±16
cell viability (patient-derived MM cells): inhibited

From patent publication US20090022687A1, “Novel Pharmaceuticals That Use Anti-HLA Antibodies” (Chugai Seiyaku Kabushiki Kaisha, priority 2005, published 2009)
